Test results reported in doi:10.1101/2020.04.27.064493 (bioRxiv, 2020).

B1: bovine DNMT1 RFTS domain (residues 349-594) (domain or fragment)
chain: PKCTECLQYLDDPELRYEQHPPDAVEEIQILTNERLSIFDANESGFESYEDLPQHKLTCFSVYCKRGHLCPIDTGLIEKDVELLFSGSAKPIYEDDPSPEGGINGKNFGPINEWWIAGFDGGEKALLGFSTSFAEYILMDPSPEYAPLFSVMQEKIYISKIVVEFLQSNPDSTYEDLINKIETTVPPCMLNLNRFTEDSLLRHAQFVVEQVESYDRAGDSDEQPIFLSPCMRDLIKLAGVTLGKRR

Tests used:
G76C-mutated ubiquitin = G76C-mutated ubiquitin (UniProt P0CG48 1-76, G76C); experiment: crystal structure
[1] = biological target: B1; experiment: crystal structure

Row | Binder | binding result (G76C-mutated ubiquitin) | binding result [1]
1 | H3_(1-24)K9me3/K18C/K23C peptide (trimethyl-lysine at K9) peptide: not shown | binds | binds
2 | B1 | binds | –
